Paper PMC4889325

Biological target: human haemoglobin (human)
Assay: ITC; MicroCal iTC200; 250 μM TcHpHbR titrated into 18 μM Hb, 20 injections of 2 μl; 20 mM HEPES pH 7.5, 150 mM NaCl, 25°C

Substance: T. congolense haptoglobin-haemoglobin receptor (TcHpHbR), recombinant, as used in gel filtration and ITC
- Kd: 3 nM
- stoichiometry N (receptors per Hb tetramer): 2
